Laboratory results taken from patent US11856945B2, “Methods and systems for preparing and preserving a biological sample” (Washington University, priority 2017, dated 2024).

Assays:
Assay type in all cases: physicochemical
[1] = NGAL encapsulation efficiency in ZIF-8 crystals (ELISA of supernatant)
Method: To quantify the encapsulation efficiency, the supernatant after crystals centrifugation was collected and remaining NGAL concentration was determined using sandwich enzyme-linked immunosorbent assay (ELISA). […] The encapsulation efficiency was calculated by subtracting the remaining NGAL amount in the supernatant after encapsulation and centrifugation (concentration measured by ELISA) from the total NGAL amount.
Characterization. To characterize protein-embedded crystals, crystals were centrifuged and washed with DI water twice (8 k r.p.m. for 20 minutes). To calculate the encapsulation efficiency, the supernatant after first centrifugation was collected and assayed by ELISA. SEM images were obtained using a FEI Nova 2300 field-emission scanning electron microscope at an acceleration voltage of 10 kV. Fourier transform infrared spectroscopy (FTIR) measurements were conducted using a Nicolette Nexus 470 spectrometer. The Raman spectra were obtained using a Renishaw inVia confocal Raman spectrometer mounted on a Leica microscope with a 50× objective and a 514 nm wavelength diode laser as an illumination source. The X-ray diffraction (XRD) measurements of the samples were recorded on a Bruker D8-Advance X-ray powder diffractometer using Cu Kα radiation (λ=1.5406 Å).

[2] = NGAL quantity in eluates by BCA assay; details: paper card stored at 40° C. for 1 week; % of spiked amount
[3] = Preservation of NGAL in patient urine dried on paper (ELISA); details: three acute kidney injury patients, 1 week
Method: Following the successful optimization of ZIF-8 encapsulation using spiked artificial urine samples, the applicability of this technique to patient urine samples was evaluated. Three acute kidney injury patients with different urinary NGAL levels (Patient #1: 32.8 ng/ml, Patient #2: 17.4 ng/ml and Patient #3: 97.5 ng/ml, quantified by ELISA and confirmed by Western blotting, FIG. 15) were selected. […] Thus, protein biomarkers in the mixture are not subjected to extremely low or high pH (Table 2). To assess the preservation efficacy of NGAL, the urine samples with and without ZIF-8 encapsulation dried on paper substrates were stored at 25 or 40° C. for 1 week. NGAL concentration in the eluate was quantified using ELISA. […] Frozen liquid sample (−20° C.) was used as a reference. POSs represent 3 distinct Positive Control signal intensities (POS1>POS2>POS3). Results are the mean and standard deviation from two parallel dots for each biomarker. The frozen-liquid samples stored at −20° C. were employed as the reference.
Sample preparation. NGAL-spiked artificial urine (50 μg/ml of NGAL, 25 μl) or patient urine (25 μl) was first mixed with 2-methylimidazole aqueous solution (12.5 μl) and then zinc acetate dihydrate aqueous solution (12.5 μl). The final concentrations of 2-methylimidazole after mixing were 320 mM, 160 mM, 80 mM and 40 mM. […]

B1: neutrophil gelatinase-associated lipocalin (protein, UniProt P80188 21-198, looked up)
Neutrophil …: QDSTSDLIPAPPLSKVPLQQNFQDNQFQGKWYVVGLAGNAILREDKDPQKMYATIYELKEDKSYNVTSVLFRKKKCDYWIRTFVPGCQPGEFTLGNIKSYPGLTSYLVRVVSTNYNQHAMVFFKKVSQNREYFKITLYGRTKELTSELKENFIRFSKSLGLPENHIVFPVPIDQCIDG
notes: urinary biomarker for acute kidney injury; human recombinant
encapsulation of NGAL ([1]; 40 mM 2-methylimidazole with 10 mM zinc acetate): ~70%
encapsulation efficiency of NGAL ([1]; NGAL spiked in artificial urine, 40 mM zinc acetate and 160 mM 2-methylimidazole): ~95%
encapsulation efficiency of NGAL ([1]; control: mixing NGAL-spiked artificial urine with pure pre-formed ZIF-8 crystals (physical adsorption)): ~10%
proteins eluted as measured by BCA assay [2]: 70%
NGAL preservation in patient urine ([3]; 25° C.): less than 40%
NGAL preservation in patient urine ([3]; 40° C.): less than 40%
